Assay results reported in IntAct's records for PubMed 31515488.

B1: Kelch-like protein 2 (Homo sapiens), O95198 (parent)
chain: METPPLPPACTKQGHQKPLDSKDDNTEKHCPVTVNPWHMKKAFKVMNELRSQNLLCDVTIVAEDMEISAHRVVLAACSPYFHAMFTGEMSESRAKRVRIKEVDGWTLRMLIDYVYTAEIQVTEENVQVLLPAAGLLQLQDVKKTCCEFLESQLHPVNCLGIRAFADMHACTDLLNKANTYAEQHFADVVLSEEFLNLGIEQVCSLISSDKLTISSEEKVFEAVIAWVNHDKDVRQEFMARLMEHVRLPLLPREYLVQRVEEEALVKNSSACKDYLIEAMKYHLLPTEQRILMKSVRTRLRTPMNLPKLMVVVGGQAPKAIRSVECYDFKEERWHQVAELPSRRCRAGMVYMAGLVFAVGGFNGSLRVRTVDSYDPVKDQWTSVANMRDRRSTLGAAVLNGLLYAVGGFDGSTGLSSVEAYNIKSNEWFHVAPMNTRRSSVGVGVVGGLLYAVGGYDGASRQCLSTVECYNATTNEWTYIAEMSTRRSGAGVGVLNNLLYAVGGHDGPLVRKSVEVYDPTTNAWRQVADMNMCRRNAGVCAVNGLLYVVGGDDGSCNLASVEYYNPTTDKWTVVSSCMSTGRSYAGVTVIDKPL
B2: Src kinase-associated phosphoprotein 1 (Homo sapiens), Q86WV1 (parent)
chain: MQAAALPEEIRWLLEDAEEFLAEGLRNENLSAVARDHRDHILRGFQQIKARYYWDFQPQGGDIGQDSSDDNHSGTLGLSLTSDAPFLSDYQDEGMEDIVKGAQELDNVIKQGYLEKKSKDHSFFGSEWQKRWCVVSRGLFYYYANEKSKQPKGTFLIKGYGVRMAPHLRRDSKKESCFELTSQDRRSYEFTATSPAEARDWVDQISFLLKDLSSLTIPYEEDEEEEEKEETYDDIDGFDSPSCGSQCRPTILPGSVGIKEPTEEKEEEDIYEVLPDEEHDLEEDESGTRRKGVDYASYYQGLWDCHGDQPDELSFQRGDLIRILSKEYNMYGWWVGELNSLVGIVPKEYLTTAFEVEER
B3: Tektin-4 (Homo sapiens), Q8WW24 (parent)
chain: MAQTVPPCELPCKEYDVARNTGAYTSSGLATASFRTSKYLLEEWFQNCYARYHQAFADRDQSERQRHESQQLATETQALAQRTQQDSTRTVGERLQDTHSWKSELQREMEALAAETNLLLAQKQRLERALDATEVPFSITTDNLQCRERREHPNLVRDHVETELLKEAELIRNIQELLKRTIMQAVSQIRLNREHKETCEMDWSDKMEAYNIDETCGRHHSQSTEVQAHPYSTTFQESASTPETRAKFTQDNLCRAQRERLASANLRVLVDCILRDTSEDLRLQCDAVNLAFGRRCEELEDARYKLHHHLHKTLREITDQEHNVAALKQAIKDKEAPLHVAQTRLYLRSHRPNMELCRDAAQFRLLSEVEELNMSLTALREKLLEAEQSLRNLEDIHMSLEKDIAAMTNSLFIDRQKCMAHRTRYPTILQLAGYQ
partner: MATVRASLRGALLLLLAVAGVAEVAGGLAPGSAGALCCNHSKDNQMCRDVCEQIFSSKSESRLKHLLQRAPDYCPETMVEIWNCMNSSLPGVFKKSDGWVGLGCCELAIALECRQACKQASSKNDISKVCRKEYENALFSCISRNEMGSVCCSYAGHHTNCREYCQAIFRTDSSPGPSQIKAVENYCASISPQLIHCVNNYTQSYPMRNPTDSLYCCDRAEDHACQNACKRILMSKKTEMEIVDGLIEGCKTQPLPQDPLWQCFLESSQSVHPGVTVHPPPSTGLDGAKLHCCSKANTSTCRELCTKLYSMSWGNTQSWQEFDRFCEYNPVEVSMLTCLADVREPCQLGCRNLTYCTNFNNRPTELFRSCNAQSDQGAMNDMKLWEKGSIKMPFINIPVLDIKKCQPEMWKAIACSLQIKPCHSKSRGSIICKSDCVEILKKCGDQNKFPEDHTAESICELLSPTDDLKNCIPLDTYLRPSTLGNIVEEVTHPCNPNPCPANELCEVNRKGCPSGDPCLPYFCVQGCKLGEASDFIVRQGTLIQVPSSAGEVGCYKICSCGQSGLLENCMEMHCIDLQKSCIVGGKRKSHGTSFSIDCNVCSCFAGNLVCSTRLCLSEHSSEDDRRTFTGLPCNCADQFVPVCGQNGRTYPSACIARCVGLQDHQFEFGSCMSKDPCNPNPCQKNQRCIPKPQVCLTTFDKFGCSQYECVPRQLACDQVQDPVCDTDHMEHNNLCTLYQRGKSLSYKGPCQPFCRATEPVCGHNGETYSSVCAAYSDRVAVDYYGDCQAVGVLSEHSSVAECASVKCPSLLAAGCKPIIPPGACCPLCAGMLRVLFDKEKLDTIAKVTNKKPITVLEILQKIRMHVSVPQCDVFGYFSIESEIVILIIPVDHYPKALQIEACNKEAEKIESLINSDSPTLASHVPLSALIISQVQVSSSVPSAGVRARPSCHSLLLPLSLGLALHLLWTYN

Variants of: B1
Details: with txd12_human TXNDC12, O95881
txd12_human TXNDC12, O95881, sequence (O95881 whole entry): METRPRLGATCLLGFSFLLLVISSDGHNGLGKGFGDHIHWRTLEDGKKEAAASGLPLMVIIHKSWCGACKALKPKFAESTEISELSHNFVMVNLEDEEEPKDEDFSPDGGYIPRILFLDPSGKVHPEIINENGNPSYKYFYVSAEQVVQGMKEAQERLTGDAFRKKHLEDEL

| effect of a mutation on the interaction | Variant |
| --- | --- |
| with no effect | METPPLPPACTKQGHQKPLDSKDDNTEKHCPVTVNPWHMKKAFKVMNELRSQNLLCDVTIVAEDMEIAAHRVVLAACSPYFHAMFTGEMSESRAKRVRIKEVDGWTLRMLIDYVYTAEIQVTEENVQVLLPAAGLLQLQDVKKTCCEFLESQLHPVNCLGIRAFADMHACTDLLNKANTYAEQHFADVVLSEEFLNLGIEQVCSLISSDKLTISSEEKVFEAVIAWVNHDKDVRQEFMARLMEHVRLPLLPREYLVQRVEEEALVKNSSACKDYLIEAMKYHLLPTEQRILMKSVRTRLRTPMNLPKLMVVVGGQAPKAIRSVECYDFKEERWHQVAELPSRRCRAGMVYMAGLVFAVGGFNGSLRVRTVDSYDPVKDQWTSVANMRDRRSTLGAAVLNGLLYAVGGFDGSTGLSSVEAYNIKSNEWFHVAPMNTRRSSVGVGVVGGLLYAVGGYDGASRQCLSTVECYNATTNEWTYIAEMSTRRSGAGVGVLNNLLYAVGGHDGPLVRKSVEVYDPTTNAWRQVADMNMCRRNAGVCAVNGLLYVVGGDDGSCNLASVEYYNPTTDKWTVVSSCMSTGRSYAGVTVIDKPL [S68A] |

Variants of: B1
Details: with tma16_human TMA16, Q96EY4

| effect of a mutation on the interaction | Variant |
| --- | --- |
| with no effect | METPPLPPACTKQGHQKPLDSKDDNTEKHCPVTVNPWHMKKAFKVMNELRSQNLLCDVTIVAEDMEIAAHRVVLAACSPYFHAMFTGEMSESRAKRVRIKEVDGWTLRMLIDYVYTAEIQVTEENVQVLLPAAGLLQLQDVKKTCCEFLESQLHPVNCLGIRAFADMHACTDLLNKANTYAEQHFADVVLSEEFLNLGIEQVCSLISSDKLTISSEEKVFEAVIAWVNHDKDVRQEFMARLMEHVRLPLLPREYLVQRVEEEALVKNSSACKDYLIEAMKYHLLPTEQRILMKSVRTRLRTPMNLPKLMVVVGGQAPKAIRSVECYDFKEERWHQVAELPSRRCRAGMVYMAGLVFAVGGFNGSLRVRTVDSYDPVKDQWTSVANMRDRRSTLGAAVLNGLLYAVGGFDGSTGLSSVEAYNIKSNEWFHVAPMNTRRSSVGVGVVGGLLYAVGGYDGASRQCLSTVECYNATTNEWTYIAEMSTRRSGAGVGVLNNLLYAVGGHDGPLVRKSVEVYDPTTNAWRQVADMNMCRRNAGVCAVNGLLYVVGGDDGSCNLASVEYYNPTTDKWTVVSSCMSTGRSYAGVTVIDKPL [S68A] |

Variants of: B2
Details: with pram_human PRAM1, Q96QH2
pram_human PRAM1, Q96QH2, sequence (Q96QH2 whole entry): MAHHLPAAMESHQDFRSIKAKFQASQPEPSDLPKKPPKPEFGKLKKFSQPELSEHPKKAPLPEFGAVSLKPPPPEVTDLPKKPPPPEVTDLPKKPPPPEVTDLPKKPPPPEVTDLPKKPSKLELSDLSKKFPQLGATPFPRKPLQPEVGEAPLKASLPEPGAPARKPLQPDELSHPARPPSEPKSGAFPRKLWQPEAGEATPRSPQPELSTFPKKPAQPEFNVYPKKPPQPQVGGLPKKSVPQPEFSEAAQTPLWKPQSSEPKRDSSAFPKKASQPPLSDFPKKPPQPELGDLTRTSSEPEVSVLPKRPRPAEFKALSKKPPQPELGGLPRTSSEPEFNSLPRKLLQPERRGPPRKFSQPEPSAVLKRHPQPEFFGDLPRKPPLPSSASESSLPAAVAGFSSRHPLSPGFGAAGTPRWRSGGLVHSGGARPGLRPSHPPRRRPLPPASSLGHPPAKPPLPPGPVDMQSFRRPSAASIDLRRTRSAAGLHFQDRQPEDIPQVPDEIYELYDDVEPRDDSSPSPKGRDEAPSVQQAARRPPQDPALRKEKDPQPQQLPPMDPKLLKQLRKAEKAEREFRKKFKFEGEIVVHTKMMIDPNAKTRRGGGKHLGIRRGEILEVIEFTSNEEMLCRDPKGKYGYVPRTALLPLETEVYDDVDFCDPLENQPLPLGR

| effect of a mutation on the interaction | Variant |
| --- | --- |
| with no effect | MQAAALPEEIRWLLEDAEEFLAEGLRNENLSAVARDHRDHILRGFQQIKARYYWDFQPQGGDIGQDSSDDNHSGTLGLSLTSDAPFLSDYQDEGMEDIVKGAQELDNVIKQGYLEKKSKDHSFFGSEWQKRWCVVSRGLFYYYANEKSKQPKGTFLIKGYSVRMAPHLRRDSKKESCFELTSQDRRSYEFTATSPAEARDWVDQISFLLKDLSSLTIPYEEDEEEEEKEETYDDIDGFDSPSCGSQCRPTILPGSVGIKEPTEEKEEEDIYEVLPDEEHDLEEDESGTRRKGVDYASYYQGLWDCHGDQPDELSFQRGDLIRILSKEYNMYGWWVGELNSLVGIVPKEYLTTAFEVEER [G161S] |

Variants of: B2
Details: with eeig1_human EEIG1, Q5T9C2
eeig1_human EEIG1, Q5T9C2, sequence (Q5T9C2 whole entry): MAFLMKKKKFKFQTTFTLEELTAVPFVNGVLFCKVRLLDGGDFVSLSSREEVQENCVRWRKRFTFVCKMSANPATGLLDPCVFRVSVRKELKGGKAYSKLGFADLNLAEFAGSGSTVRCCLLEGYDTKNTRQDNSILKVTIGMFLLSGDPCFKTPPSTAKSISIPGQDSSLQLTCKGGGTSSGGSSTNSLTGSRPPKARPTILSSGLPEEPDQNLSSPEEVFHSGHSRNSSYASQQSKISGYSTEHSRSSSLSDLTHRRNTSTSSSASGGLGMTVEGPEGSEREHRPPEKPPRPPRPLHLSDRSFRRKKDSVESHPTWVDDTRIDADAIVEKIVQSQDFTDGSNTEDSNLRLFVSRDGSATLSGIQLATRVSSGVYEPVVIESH

| effect of a mutation on the interaction | Variant |
| --- | --- |
| with no effect | MQAAALPEEIRWLLEDAEEFLAEGLRNENLSAVARDHRDHILRGFQQIKARYYWDFQPQGGDIGQDSSDDNHSGTLGLSLTSDAPFLSDYQDEGMEDIVKGAQELDNVIKQGYLEKKSKDHSFFGSEWQKRWCVVSRGLFYYYANEKSKQPKGTFLIKGYGVRMAPHLRRDSKKESCFELTSQDRRSYEFTATSPAEARDWVDQISFLLKDLSSLTIPYEEDEEEEEKEETYDDIDGFDSPGCGSQCRPTILPGSVGIKEPTEEKEEEDIYEVLPDEEHDLEEDESGTRRKGVDYASYYQGLWDCHGDQPDELSFQRGDLIRILSKEYNMYGWWVGELNSLVGIVPKEYLTTAFEVEER [S242G] |

Variants of: B3
Details: with reck_human RECK

| effect of a mutation on the interaction | Variant |
| --- | --- |
| with no effect | MAQTVPPCELPCKEYDVARNTGAYTSSGLATASFRTSKYLLEEWFQNCYARYHQAFADRDQSERQRHESQQLATETQALVQRTQQDSTRTVGERLQDTHSWKSELQREMEALAAETNLLLAQKQRLERALDATEVPFSITTDNLQCRERREHPNLVRDHVETELLKEAELIRNIQELLKRTIMQAVSQIRLNREHKETCEMDWSDKMEAYNIDETCGRHHSQSTEVQAHPYSTTFQESASTPETRAKFTQDNLCRAQRERLASANLRVLVDCILRDTSEDLRLQCDAVNLAFGRRCEELEDARYKLHHHLHKTLREITDQEHNVAALKQAIKDKEAPLHVAQTRLYLRSHRPNMELCRDAAQFRLLSEVEELNMSLTALREKLLEAEQSLRNLEDIHMSLEKDIAAMTNSLFIDRQKCMAHRTRYPTILQLAGYQ [A80V] |
| with no effect | MAQTVPPCELPCKEYDVARNTGAYTSSGLATASFRTSKYLLEEWFQNCYARYHQAFADRDQSERQRHESQQLATETQALAQCTQQDSTRTVGERLQDTHSWKSELQREMEALAAETNLLLAQKQRLERALDATEVPFSITTDNLQCRERREHPNLVRDHVETELLKEAELIRNIQELLKRTIMQAVSQIRLNREHKETCEMDWSDKMEAYNIDETCGRHHSQSTEVQAHPYSTTFQESASTPETRAKFTQDNLCRAQRERLASANLRVLVDCILRDTSEDLRLQCDAVNLAFGRRCEELEDARYKLHHHLHKTLREITDQEHNVAALKQAIKDKEAPLHVAQTRLYLRSHRPNMELCRDAAQFRLLSEVEELNMSLTALREKLLEAEQSLRNLEDIHMSLEKDIAAMTNSLFIDRQKCMAHRTRYPTILQLAGYQ [R82C] |
| with no effect | MAQTVPPCELPCKEYDVARNTGAYTSSGLATASFRTSKYLLEEWFQNCYARYHQAFADRDQSERQRHESQQLATETQALAQRTQQDSTRTVGERLQDTHGWKSELQREMEALAAETNLLLAQKQRLERALDATEVPFSITTDNLQCRERREHPNLVRDHVETELLKEAELIRNIQELLKRTIMQAVSQIRLNREHKETCEMDWSDKMEAYNIDETCGRHHSQSTEVQAHPYSTTFQESASTPETRAKFTQDNLCRAQRERLASANLRVLVDCILRDTSEDLRLQCDAVNLAFGRRCEELEDARYKLHHHLHKTLREITDQEHNVAALKQAIKDKEAPLHVAQTRLYLRSHRPNMELCRDAAQFRLLSEVEELNMSLTALREKLLEAEQSLRNLEDIHMSLEKDIAAMTNSLFIDRQKCMAHRTRYPTILQLAGYQ [S100G] |
| with no effect | MAQTVPPCELPCKEYDVARNTGAYTSSGLATASFRTSKYLLEEWFQNCYARYHQAFADRDQSEWQRHESQQLATETQALAQRTQQDSTRTVGERLQDTHSWKSELQREMEALAAETNLLLAQKQRLERALDATEVPFSITTDNLQCRERREHPNLVRDHVETELLKEAELIRNIQELLKRTIMQAVSQIRLNREHKETCEMDWSDKMEAYNIDETCGRHHSQSTEVQAHPYSTTFQESASTPETRAKFTQDNLCRAQRERLASANLRVLVDCILRDTSEDLRLQCDAVNLAFGRRCEELEDARYKLHHHLHKTLREITDQEHNVAALKQAIKDKEAPLHVAQTRLYLRSHRPNMELCRDAAQFRLLSEVEELNMSLTALREKLLEAEQSLRNLEDIHMSLEKDIAAMTNSLFIDRQKCMAHRTRYPTILQLAGYQ [R64W] |
